In PMC4863989:
pKd: −log10 of the molar value.

Columns and labels:
[1] = molecular target: expanded form (EX) of the P22 virus-like particle (bacteriophage P22) (UniProt P26747); experiment: SPR
[2] = molecular target: expanded form (EX) of the P22 virus-like particle (bacteriophage P22) (UniProt P26747); experiment: SEC-MALS
[3] = molecular target: Dec truncated by the first 11 N-terminal residues (bacteriophage L); experiment: SEC
[4] = molecular target: Dec truncated by the first 20 N-terminal residues (bacteriophage L); experiment: SEC
[5] = molecular target: decoration protein (Dec) from bacteriophage L, wild type with N-terminal 6x histidine tag (bacteriophage L); experiment: SEC

| Substance | KD1 (tight site, two-site fit) [1] [nM] | ka1 (tight site, two-site fit) [1] [M⁻¹ s⁻¹] | stoichiometry N (Dec monomers per particle) [2] | kd1 (tight site, two-site fit) [1] [s⁻¹] | other results |
| --- | --- | --- | --- | --- | --- |
| Dec fused at its C-terminus to the 21 amino acid CD47 mimic Self-peptide | 18.3 | 11200 | 114 |  |  |
| Dec fused at its C-terminus to the soluble region of murine CD40L (from UniProt P27548 112-260) | 30.8 | 6440 | 51 | 0.0002 |  |
| Dec truncated by the first 11 N-terminal residues (domain or fragment) |  |  | 214 |  | stoichiometry N [3]: 3 |
| Dec truncated by the first 20 N-terminal residues (domain or fragment) |  |  |  |  | stoichiometry N [4]: 3 |
| decoration protein (Dec) from bacteriophage L, wild type with N-terminal 6x histidine tag (natural protein) |  | 11500 | 155 | 0.000106 | stoichiometry N [5]: 3; KD2 (weak site, two-site fit) [1]: 1500 nM; pKd [1]: 7.62; half-life of binding at the tight site [1]: > 60 h; ka2 (weak site, two-site fit) [1]: 1980 M⁻¹ s⁻¹; koff [1]: 0.00033 s⁻¹; kon [1]: 13800 M⁻¹ s⁻¹ |
